Patent publication US20230374151A1

How the values were obtained:
[1] = target: TnMUC1 peptide 1 (partially glycosylated), biotinylated; assay: SPR (Biacore T200): biotinylated TnMUC1 peptide 1 (96-1) captured on CAP chip, scFv as analyte, 1:1 fit, average
[2] = target: STnMUC1 peptide, biotinylated; assay: SPR (Biacore T200): biotinylated STnMUC1 peptide (35-1) captured on CAP chip, scFv as analyte
[3] = target: TnMUC1 peptide (fully glycosylated), biotinylated; assay: SPR (Biacore T200): biotinylated TnMUC1 peptide batch 65-1 captured on CAP chip, scFv as analyte, 1:1 fit, average
[4] = target: STnMUC1 peptide, biotinylated; assay: SPR (Biacore T200): biotinylated STnMUC1 peptide (35-1) captured on CAP chip, scFv as analyte, 1:1 fit, average

Sequence of STnMUC1 peptide, biotinylated (main, as listed by the source): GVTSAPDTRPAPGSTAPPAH

- Kd [1]: 28.7 nM
- koff [1]: 0.000803 s⁻¹
- Kd [2]: 84 nM
- Kd [3]: 26.6 nM
- koff [3]: 0.000845 s⁻¹
- Kd [4]: 84.1 nM
- koff [4]: 0.000282 s⁻¹
- kon [4]: 3350 M⁻¹ s⁻¹
Substance: murine 5E5 scFv protein (23-P1) obtained from Creative Biolabs
